Assays:
[1] = target: HIV-1 M-group (NL4-3) N-terminal capsid domain; test: ITC
[2] = target: HIV-1 capsid CAN (Human immunodeficiency virus 1) (UniProt O93182); details: cited from earlier work
[3] = target: HIV-1 M-group (NL4-3) N-terminal capsid domain (HIV-1 M-group (NL4-3))
[4] = target: HIV-1 M-group (NL4-3) N-terminal capsid domain (HIV-1 M-group (NL4-3)); test: ITC; MicroCal ITC200, 15°C, 50 mM potassium phosphate pH 7.4, 100 mM NaCl, 1 mM DTT; NUP358Cyp (typical 2.5 mM) in the syringe, capsid domain (typical 0.2 mM) in the cell; one set of binding sites model

Row | Substance | other: N (stoichiometry) [1] | other: ΔH [1] | other: ΔS ((cal/mol)/deg) [1] | Kd [2] | rate of cis-trans isomerization of the capsid G89-P90 bond catalysed by NUP358Cyp (NMR ZZ-exchange; 430 μM CA^N, 35 μM NUP358Cyp, 298 K) [3] | Kd [4]
1 | cyclophilin domain from human NUP358 (from UniProt P49792) V61M; V113F | 1.43 | -7.45 kcal/mol | -5.26 |  |  | 
2 | NUP358 Cyp (from UniProt P49792) |  |  |  | 200 µM |  | 
3 | cyclophilin domain from human NUP358 (from UniProt P49792) V113F | 0.74 | -10.8 kcal/mol | -16.5 |  |  | 
4 | cyclophilin domain from human NUP358 (from UniProt P49792 3057-3224) (domain or fragment) |  |  |  |  | 12.1 s⁻¹ | 94 µM

From publication PMC3750474
